According to the supplement of paper PMC10567573:
± gives the standard deviation.

Assay: protein stability index of a GFP-peptide fusion (GPS, HEK-293T) (PSI 1-6); higher = more stable
Details: c terminus: a fixed tail appended
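Further: 24-mer peptide tiles fused after GFP, lentivirally expressed, FACS-sorted into six equal bins by GFP/DsRed ratio, decoded by Illumina sequencing, PSI is the read-weighted mean bin number.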

Row | Sequence | protein stability index (treatment: DMSO) | protein stability index (treatment: MLN4924 1 uM, 8 h)
1 | WQLLLFLCATHFGEPLEKVASVGN [KISS1] | 2.78 ± 1.2 | 2.29 ± 0.35
2 | WSSRSPQERSRVLNQVADLLEQSL [ALDH8A1] | 2.8 ± 0.12 | 3.08 ± 0.54
3 | WTVANMEEIKKLTTDPDLILEVLR [LARP4] | 2.15 ± 0.29 | 2.62 ± 0.27
4 | YAILDEKKSELLQRITQEQEKKLS [TRIM63] | 4.35 ± 0.17 | 4.52 ± 0.13
5 | YAVGGSDGTSPLNTVERYNPQENR [KLHL20] | 4.53 ± 0.33 | 4.79 ± 0.28
6 | YDVEMTDELVGLPFSSHTYSQASE [FBXO34] | 4.52 ± 0.32 | 4.52 ± 0.23
7 | YFISTVKRSWTSAQNACSEHGATL [CD69] | 2.09 ± 0.49 | 2.07 ± 0.3
8 | YGFYLRAGSEQKGQIIKDIDSGSP [PDZK1] | 3.2 ± 0.17 | 3.17 ± 0.36
9 | YGGSGDGLIPTGSGRHPSHSTTPS [ARFIP2] | 4.26 ± 0.069 | 4.51 ± 0.29
10 | YGTQRTLILESQNWRYATGGWETV [FUT8] | 2.1 ± 0.13 | 2.16 ± 0.14
11 | YHAVVEPMLWNPSGTPKRYSLELG [C22orf31] | 2.77 ± 0.54 | 2.81 ± 0.17
12 | YHPEEFVCSQCGKVLEEGGFFEEK [PDLIM7] | 3.94 ± 0.5 | 3.93 ± 0.57
13 | YKVSAASSFFFSGVFVGVISFGQL [SLC22A15] | 3.24 ± 0.1 | 3.25 ± 1.5
14 | YLHTVSDCDTSSICEDSFDGRSLS [SCARA5] | 4.37 ± 0.13 | 4.51 ± 0.14
15 | YLKNLPLLSKYCGYREDNIPQLED [TPH1] | 2.57 ± 0.09 | 2.77 ± 0.2
16 | YLPSTEFSVSSTSRRIYRCRNCIN [IQUB] | 2.62 ± 0.31 | 3.61 ± 0.38
17 | YLVENNANISIANKYDNTCLMIAA [FEM1B] | 2.38 ± 0.1 | 2.21 ± 0.22
18 | YMYLVIEELTREAVAVDVAVPKRL [HAGHL] | 2.57 ± 0.57 | 2.71 ± 0.41
19 | YNPHPGFPELGYSYGGGSASSQHS [DVL3] | 2.95 ± 0.36 | 3.29 ± 0.26
20 | YPCIPNHELVWAKMKGFGFWPAKV [ZMYND11] | 3.09 ± 1.4 | 2.19 ± 0.3
21 | YQPAPYFAAEARYPIYVIPEPPPV [TENT5D] | 2.02 ± 0.18 | 2.35 ± 0.55
22 | YSFRKLPDTQLLKFQLNKYTGEIK [PCDHGA10] | 2.39 ± 0.37 | 2.54 ± 0.3
23 | YSLASGAGGGGSKGNSLKRSKSIR [RAB40C] | 4.37 ± 0.17 | 4.41 ± 0.26
24 | YSLQMKRVIACQKTAHDSNVLHVA [WDR41] | 2.23 ± 0.14 | 2.38 ± 0.32
25 | YVINWFMSFGPEIKLNTSQQGRNQ [FAM104B] | 2.67 ± 1.7 | 2.53 ± 0.71
26 | YVLNLLYETKKHLVQLPNINRVST [PPEF2] | 2.49 ± 0.68 | 2.59 ± 0.39
27 | YVTTNVSLIPPRSEQLVNFTGKAE [TMEM106C] | 2.49 ± 0.57 | 2.8 ± 0.68
